Laboratory results reported in publication PMC9019814.

Legend:
citrate synthase = citrate synthase (UniProt P00889)
[1] = biological target: βB2-crystallin (calf (endogenous in calf lenses)) (UniProt P02522)
alcohol dehydrogenase = alcohol dehydrogenase (UniProt P00330)
alcohol dehydrogenase, sequence (P00330 whole entry): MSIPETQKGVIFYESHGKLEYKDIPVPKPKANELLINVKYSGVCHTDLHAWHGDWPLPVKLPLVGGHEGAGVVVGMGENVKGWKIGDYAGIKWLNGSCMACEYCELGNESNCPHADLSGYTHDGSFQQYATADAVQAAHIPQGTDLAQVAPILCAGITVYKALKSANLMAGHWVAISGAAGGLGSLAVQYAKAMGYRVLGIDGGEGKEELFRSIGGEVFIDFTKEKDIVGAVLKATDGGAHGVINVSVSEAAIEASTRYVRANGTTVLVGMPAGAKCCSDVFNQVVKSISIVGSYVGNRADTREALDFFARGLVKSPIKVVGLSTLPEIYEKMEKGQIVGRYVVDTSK

human wild-type αA-crystallin, sequence (P02489 whole entry): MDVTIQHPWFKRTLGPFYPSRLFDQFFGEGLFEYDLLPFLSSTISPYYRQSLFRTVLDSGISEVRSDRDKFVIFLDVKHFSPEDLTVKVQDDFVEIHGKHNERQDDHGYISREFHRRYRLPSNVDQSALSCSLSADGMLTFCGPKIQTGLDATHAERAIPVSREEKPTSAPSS
βB2-crystallin (calf (endogenous in calf lenses)), sequence (P02522 whole entry): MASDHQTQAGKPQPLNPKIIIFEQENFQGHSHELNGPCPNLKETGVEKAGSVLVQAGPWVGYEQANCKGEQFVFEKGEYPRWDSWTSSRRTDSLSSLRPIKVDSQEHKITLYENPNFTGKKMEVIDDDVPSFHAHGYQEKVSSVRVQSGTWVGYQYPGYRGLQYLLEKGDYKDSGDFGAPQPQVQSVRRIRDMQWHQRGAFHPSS
citrate synthase, sequence (P00889 28-464): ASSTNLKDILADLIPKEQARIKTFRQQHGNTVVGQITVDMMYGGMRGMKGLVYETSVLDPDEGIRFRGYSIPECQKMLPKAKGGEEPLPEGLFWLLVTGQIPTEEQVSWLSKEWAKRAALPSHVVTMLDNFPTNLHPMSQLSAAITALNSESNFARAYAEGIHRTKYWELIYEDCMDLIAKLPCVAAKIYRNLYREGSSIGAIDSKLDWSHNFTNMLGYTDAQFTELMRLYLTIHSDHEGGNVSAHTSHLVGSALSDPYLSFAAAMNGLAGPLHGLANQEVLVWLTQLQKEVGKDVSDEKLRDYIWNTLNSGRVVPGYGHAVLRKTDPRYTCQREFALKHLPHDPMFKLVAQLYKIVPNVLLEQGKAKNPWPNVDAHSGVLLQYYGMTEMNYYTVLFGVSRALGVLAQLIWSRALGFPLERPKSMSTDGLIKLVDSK

Question: How did the amount of chaperone protein for fifty percent protection from thermal aggregation of CS (75 µg in 1 ml) at 43°C, scattering at 360 nm at 60 min (citrate synthase) turn out when “human wild-type αA-crystallin (from UniProt P02489 1-173) (natural protein)” was run?
Answer: 22 µg

Question: And the amount of chaperone protein that suppresses the aggregation of βB2-crystallin (250 µg in 1 ml) at 37°C by 50%, scattering at 360 nm at 60 min [1]?
Answer: 30 µg

Question: What about the EC50 of chaperone protein for suppression of EDTA-induced aggregation of ADH (250 µg in 1 ml) at 37°C, scattering at 360 nm at 60 min (alcohol dehydrogenase) of the same substance?
Answer: 45 µg
